The record followed here is the supplement of paper PMC10724198.

In this series the test system is Saccharomyces cerevisiae. Kind of series: protein stability index of tFT-peptide fusion (C-terminal peptide) (PSI (0-1 scale)); higher = more stable (slower turnover). As to conditions: temperature: 30 C. As to the method:
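MPS profiling in S. cerevisiae of the yeast C-terminome library: the last 12 aa of each annotated ORF are fused to the C-terminus of a sfGFP-mCherry timer, after a GGGS linker. Cells are FACS-sorted into 8 mCherry/sfGFP bins and deep-sequenced. PSI runs from 0 (unstable) to 1 (stable); wild type and das1Δ backgrounds, two technical replicates each.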

Where [1] appears, read: genetic background: das1 deletion.

± gives the standard deviation of the averaged measurements.

As to IKYNWERCFNGE [YDR521W C-terminal 12 aa], the protein stability index runs as follows: under setting [1], 0.71 ± 0.014; (genetic background: wild type) 0.697 ± 0.04.
As for ILLITGFKSSFT [SRL4 C-terminal 12 aa], the protein stability index is, setting by setting: under setting [1], 0.72 ± 0.018; (genetic background: wild type) 0.737 ± 0.038.
The matching figures for ILNCVGSAKISG [YGR291C C-terminal 12 aa]: 0.668 ± 0.025 and 0.654 ± 0.02.
The matching figures for ILRQYFTDLASS [REA1 C-terminal 12 aa]: 0.675 ± 0.026 and 0.696 ± 0.041.
IMPDRFDYENYY [TMS1 C-terminal 12 aa] returned a protein stability index under setting [1] of 0.739 ± 0.0052 and a protein stability index (genetic background: wild type) of 0.698 ± 0.0097.
The matching figures for INDWLSSWKRSK [CRR1 C-terminal 12 aa]: 0.756 ± 0.017 and 0.727 ± 0.021.
As for INSQTMTVTTAL [VHC1 C-terminal 12 aa], the protein stability index came to 0.685 ± 0.039 under setting [1] and 0.69051 ± 0.00012 (genetic background: wild type).
The matching figures for IPAYKKHGIQKN [OSH7 C-terminal 12 aa]: 0.694 ± 0.012 and 0.693 ± 0.038.
The matching figures for IQTINEVRTNYM [RSE1 C-terminal 12 aa]: 0.69 ± 0.041 and 0.744 ± 0.11.
In the same order, the values of IRDILKLGHPTR [GYP8 C-terminal 12 aa] are 0.699 ± 0.043 and 0.666 ± 0.034.
For the sequence IREFPEYFAAQA [RPL10 C-terminal 12 aa], the protein stability index by setting is: under setting [1], 0.682 ± 0.015; (genetic background: wild type) 0.671 ± 0.03.
In the same order, the values of IRKYGYNLAAYT [YLR462W C-terminal 12 aa] are 0.6649 ± 0.00076 and 0.6563 ± 0.0049.
Consider “IRRYPFLWIPFL [YMR316C-B C-terminal 12 aa]”, for which the protein stability index under setting [1] is 0.709 ± 0.04 and the protein stability index (genetic background: wild type) was 0.147 ± 0.015.
In the case of “IRYSMPYRLASN [YLR264C-A C-terminal 12 aa]”, the protein stability index is, setting by setting: under setting [1], 0.6856 ± 0.0022; (genetic background: wild type) 0.648 ± 0.019.
In the same order, the values of ISKKVFGNKLHQ [MTM1 C-terminal 12 aa] are 0.709 ± 0.0014 and 0.656 ± 0.022.
The matching figures for ISLLSQFVYKGK [EXO1 C-terminal 12 aa]: 0.7 ± 0.016 and 0.678 ± 0.01.
The matching figures for ISQWREWIDEKL [SRP102 C-terminal 12 aa]: 0.679 ± 0.025 and 0.72 ± 0.029.
ITKQKALDYHYL [CBS2 C-terminal 12 aa]: the protein stability index came out at 0.698 ± 0.0089 under setting [1] and 0.667 ± 0.016 (genetic background: wild type).
In the same order, the values of ITSKPPATVEWE [GUA1 C-terminal 12 aa] are 0.695 ± 0.01 and 0.726 ± 0.015.
The matching figures for IYKYCCCCFCCC [YCK3 C-terminal 12 aa]: 0.6598 ± 0.0038 and 0.594 ± 0.046.
The matching figures for KALRELQAEMGL [SNF7 C-terminal 12 aa]: 0.696 ± 0.0095 and 0.688 ± 0.025.
In the case of KASNGHIELIGE [CRF1 C-terminal 12 aa], the protein stability index came to 0.674 ± 0.002 under setting [1] and 0.699 ± 0.034 (genetic background: wild type).
The matching figures for KDAFLKELGLQN [PRD1 C-terminal 12 aa]: 0.69 ± 0.013 and 0.678 ± 0.028.
In the same order, the values of KDEVTDDMQLEV [JLP2 C-terminal 12 aa] are 0.6997 ± 0.002 and 0.68 ± 0.03.
For KDSKNGASTLTS [YSW1 C-terminal 12 aa], the protein stability index runs as follows: under setting [1], 0.691 ± 0.041; (genetic background: wild type) 0.672 ± 0.018.
The matching figures for KDVETLSVSDEK [SEO1 C-terminal 12 aa]: 0.686 ± 0.021 and 0.696 ± 0.043.
In the same order, the values of KEALLTRLEHMI [SWC7 C-terminal 12 aa] are 0.682 ± 0.015 and 0.624 ± 0.011.
In the case of KEEEGSFNNVIG [PRE2 C-terminal 12 aa], the protein stability index was determined as 0.702 ± 0.012 under setting [1] and 0.66 ± 0.014 (genetic background: wild type).
